Biological target: TRPM8-mTurquoise2 (human) (UniProt Q7Z2W7)
Assay: FRET or BRET

Sequence of UniProt Q7Z2W7 (Q7Z2W7 2-1104): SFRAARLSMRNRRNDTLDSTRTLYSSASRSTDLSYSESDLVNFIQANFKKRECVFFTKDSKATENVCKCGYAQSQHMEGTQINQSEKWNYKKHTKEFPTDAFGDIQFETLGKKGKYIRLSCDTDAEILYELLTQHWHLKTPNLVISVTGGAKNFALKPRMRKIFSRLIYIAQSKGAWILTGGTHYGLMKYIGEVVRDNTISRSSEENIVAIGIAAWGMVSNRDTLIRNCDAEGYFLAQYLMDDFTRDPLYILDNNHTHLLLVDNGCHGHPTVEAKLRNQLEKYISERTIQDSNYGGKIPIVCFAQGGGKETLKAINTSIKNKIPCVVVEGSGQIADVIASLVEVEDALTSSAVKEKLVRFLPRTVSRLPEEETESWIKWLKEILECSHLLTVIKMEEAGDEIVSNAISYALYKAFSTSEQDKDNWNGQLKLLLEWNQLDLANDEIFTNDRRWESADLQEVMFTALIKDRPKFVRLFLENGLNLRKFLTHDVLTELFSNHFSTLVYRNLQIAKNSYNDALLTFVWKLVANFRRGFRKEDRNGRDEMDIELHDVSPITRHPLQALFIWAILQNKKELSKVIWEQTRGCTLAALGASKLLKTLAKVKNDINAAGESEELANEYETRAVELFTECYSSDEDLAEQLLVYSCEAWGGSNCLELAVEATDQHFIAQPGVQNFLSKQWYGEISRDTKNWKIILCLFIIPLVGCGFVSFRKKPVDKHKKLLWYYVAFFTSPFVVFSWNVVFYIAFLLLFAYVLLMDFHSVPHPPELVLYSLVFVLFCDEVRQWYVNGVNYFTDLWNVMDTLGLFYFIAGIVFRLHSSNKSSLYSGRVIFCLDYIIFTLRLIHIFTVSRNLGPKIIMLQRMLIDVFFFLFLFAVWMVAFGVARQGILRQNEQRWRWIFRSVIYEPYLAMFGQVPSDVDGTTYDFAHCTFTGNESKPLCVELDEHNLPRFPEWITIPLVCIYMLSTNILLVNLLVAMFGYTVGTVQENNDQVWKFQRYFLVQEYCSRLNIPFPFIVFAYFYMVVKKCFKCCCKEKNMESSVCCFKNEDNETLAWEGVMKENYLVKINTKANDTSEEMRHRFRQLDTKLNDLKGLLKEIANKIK

- E FRET: < 1%
Substance: free SYFP2 protein
